Reference: patent CN108948193A (SHANGHAI JIANXIN BIOPHARMACEUTICALS LLC, dated 2018)
Values joined by “and” are separate entries in the source; they are usually repeats but may differ in a detail not shown here. Identical values can stand only once. One block for each binder: values may come before it.

Columns and labels:
[1] = target: TIM3-hFc (human TIM-3 Fc fusion, 货号 TM3-H5258, 北京百普赛斯生物科技有限公司) (human) (UniProt Q8TDQ0); assay: ELISA, hybridoma supernatant on TIM3-hFc captured by anti-hFc
[2] = target: human TIM-3 on human blood cells (PBMC / NK cells / activated T cells) (human, UniProt Q8TDQ0 22-301); assay: cell-based or functional assay
[3] = target: T1, TIM3-hFc (human TIM-3 Fc fusion, 货号 TM3-H5258, 北京百普赛斯生物科技有限公司) (human, UniProt Q8TDQ0 22-200); assay: ELISA on TIM3-hFc captured by anti-hFc
T1 construct: also called 人TIM-3; 人TIM-3抗原; not shown: human Fc (hFc) of the bought fusion

[4] = target: T2, 人Tim-3 (antigen used as analyte in Biacore) (human, UniProt Q8TDQ0 22-200); assay: SPR, Biacore T200, antibody captured by Protein A on CM5, TIM-3 as analyte, 1:1 Langmuir
T2 construct: Soluble antigen flowed at 0-30 nM over antibody captured by Protein A; also called 抗原TIM-3

B1: mab5 (mouse hybridoma clone 6F3, murine anti-human TIM-3 monoclonal antibody) (antibody, V domains shown)
VH: EVKLVESEGGLVQPGGSMKLSCTASGFTFSDYYMAWVRQVPEKGLEWVANINYDGSNTYYLDSLKSRFIISRDNVKNILYLQMSSLKSEDTATYYCARGLYYYGGNYFAYWGQGTLVTVSA
VL: DILMTQSPSSMSVSLGDTVTITCHASQGISSNIGWLQQKPGKSFKGLIYQGSNLEDGVPSRFSGSGSGADYSLTISSLEYEDFADYYCVQFAQFPPTFGAGTKLELK
- ELISA 数值(OD450) [1]: 1.73 OD450

B3: 人源化ab8抗体 (humanized anti-TIM-3 antibody ab8) (antibody, IgG4, V domains shown)
VH: EVQLVESGGGLVKPGGSLRLSCAASGFTFSDYYMAWVRQAPGKGLEWVANINYDGSNTYYLDSLKSRFTISRDNAKNSLYLQMNSLRAEDTAVYYCARGLYYYGGNYFAYWGQGTLVTVSS
VL: DIQMTQSPSSLSASVGDRVTITCHASQGISSNIGWLQQKPGKAFKGLIYQGSNLEDGVPSRFSGSGSGTDYTLTISSLQPEDFATYYCVQFAQFPPTFGQGTKLEIKR
notes: Humanized mab5; human kappa / IgG4
- EC50 [3]: 0.131 nM

B5: 人源化ab7抗体 (humanized anti-TIM-3 antibody ab7) (antibody, human IgG4 S228P, kappa, V domains shown)
VH: EVQLVESGGGLVKPGGSLRLSCAASGFTFSDYYMAWVRQAPGKGLEWVANINYDGSNTYYLDSLKSRFTISRDNAKNSLYLQMNSLRAEDTAVYYCARGLYYYGGNYFAYWGQGTLVTVSS
VL: DIQMTQSPSSLSASVGDRVTITCHASQGISSNIGWLQQKPGKAFKGLIYQGSNLEDGVPSRFSGSGSGTDFTLTISSLQPEDFATYYCVQFAQFPPTFGQGTKLEIKR
notes: as for B3
- EC50 [3]: 0.154 nM

Continued, in another order:

- EC50 [3]: 0.107 nM and 0.06 nM
- Kd [4]: 1.76 nM
- koff [4]: 0.00244 s⁻¹
- kon [4]: 1.39e+06 M⁻¹ s⁻¹
B2: mab5-c (chimeric anti-human TIM-3 antibody, human IgG4-κ) (antibody, V domains shown)
VH: EVKLVESEGGLVQPGGSMKLSCTASGFTFSDYYMAWVRQVPEKGLEWVANINYDGSNTYYLDSLKSRFIISRDNVKNILYLQMSSLKSEDTATYYCARGLYYYGGNYFAYWGQGTLVTVSA
VL: DILMTQSPSSMSVSLGDTVTITCHASQGISSNIGWLQQKPGKSFKGLIYQGSNLEDGVPSRFSGSGSGADYSLTISSLEYEDFADYYCVQFAQFPPTFGAGTKLELKR
notes: Mouse mab5 variable regions on human IgG4 / kappa constant regions; expressed in HEK293E; also called 嵌合抗体mab5-c
- killing activity relative to the reference antibody ABTIM3 (fold) [2]: 2.8 倍 (fold)

- EC50 [3]: 0.159 nM
B4: 人源化ab6抗体 (humanized anti-TIM-3 antibody ab6) (antibody, human IgG4 S228P, kappa, V domains shown)
VH: EVQLVESGGGLVKPGGSLRLSCAASGFTFSDYYMAWVRQAPGKGLEWVANINYDGSNTYYLDSLKSRFTISRDNAKNSLYLQMNSLRAEDTAVYYCARGLYYYGGNYFAYWGQGTLVTVSS
VL: DIQMTQSPSSLSASVGDRVTITCHASQGISSNIGWLQQKPGKAFKGLIYQGSNLEDGVPSRFSGSGSGADYTLTISSLQPEDFATYYCVQFAQFPPTFGQGTKLEIKR
notes: as for B3
- killing of tumour cells by PBMC/NK cells relative to the reference antibody (fold) [2]: ≥ 2 倍 (fold)

- EC50 [3]: 0.245 nM and 0.13 nM
B6: 对照抗体 ABTIM3 (reference anti-TIM-3 antibody, sequence from WO2015117002A1) (antibody, V domains shown)
VH: QVQLQQPGAELVKPGASVKMSCKASGYTFTSYNMHWIKQTPGQGLEWIGDIYPGNGDTSYNQKFKGKATLTADKSSSTVYMQLSSLTSEDSAVYYCARVGGAFPMDYWGQGTSVTVSS
VL: DIVLTQSPASLAVSLGQRATISCRASESVEYYGTSLMQWYQQKPGQPPKLLIYAASNVESGVPARFSGSGSGTDFSLNIHPVEEDDIAIYFCQQSRKDPSTFGGGTKLEIK
